Test: yeast display, Sf9 membrane polyspecificity reagent, FACS + sequencing; frameworks hold sequencing errors
Outline: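 Galactose induction of a Saccharomyces cerevisiae BJ5465 synthetic nanobody display library ran 36–48 hours. The cells were then stained for 1 hour at 4 °C with 10% biotinylated, detergent-solubilized Sf9 membrane reagent, pulled down on streptavidin microbeads and FACS-sorted into low and high (top ~1%) gates on expression and reagent-binding fluorescence. Labels for polyreactivity follow the gate of origin.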

Sequence | polyreactivity (PSR sort gate)
QVQLVESGGCLVQAGGSLRLSCAASGRIVYPYAMGWYRQAPGKERELVAAISSSGGSTYYADSVKGRFTISRDNAKNTVYLQMNSLKPDDTAVYYCAAQEFQKRLGGSWCRYDYWGQGTQVNVSS | high polyreactivity
QVQLVESGGCLVQAGGSLRLSCAASGRTFAWYAMGWYRQAPGKERELVAAISSGGSTYYADSVKGRFTISRDNAKNTVYLQMDSLKPEDTAVYYCAAEWHYIYAYDYWGQGTQVTVSS | low polyreactivity
QVQLVESGGCLVQAGGSLRLSCAASGRTFAWYAMGWYRQAPGKERELVAAITNGGSTYYADSVKGRFTISRDNAKNTVYLQMNSLKPDDTAVYYCAAYYRSRHHGYDSWGQGTQVTVSS | low polyreactivity
QVQLVESGGCLVQAGGSLRLSCAASGRTFAYYAMGWYRQAPGKERELVAAITRGGSTYYADSVKGRFTISRDNAKNTVYLQMNSLKPEDTAVYYCAADTSPYQDDYWGQGTQVTVSS | low polyreactivity
QVQLVESGGCLVQAGGSLRLSCAASGRTFDINDMGWYRQAPGKEREFVAAIDRSGGNTYYADSVKGRFIISRDNAKNTVYLQMNSLKPEDTAVYYCAADSPYVVAWPYVWYFTFDYWGQGTQVTVTS | low polyreactivity
QVQLVESGGCLVQAGGSLRLSCAASGRTFNRYAMGWYRQAPGKERELVAAITRRGGSTYYADSVKGRFTISRDNAKNTVYLQMNSLKPEDTAVYYCATDTYYSDYGSWGQGTQVTVSS | high polyreactivity
QVQLVESGGCLVQAGGSLRLSCAASGRTFPLYAMGWYRQAPGKERELVASITNGGNTNYADSVKGRFTISRDNEKNTVYLQMNSLKPEDTAVYYCAAQTFGYGFGGGDYWGQGTQVTVSS | low polyreactivity
QVQLVESGGCLVQAGGSLRLSCAASGRTFRHYGMGWYRPAPRKERELVAAISRSGGRTYYADSVKGRFTISRDNAKNTVYLQMNSLKPEDTAVYYCNAPYDVTTYAFDYWGQGTQVTVSS | high polyreactivity
QVQLVESGGCLVQAGGSLRLSCAASGRTFYFYAMGWYRQAPGKERELVASISWSGGRTNYADSVKGRFTSSRDNAKNTVYLQMNSLKPEDTAVHYCAARYVERHTDYYYWGQGTQVTVSS | low polyreactivity
QVQLVESGGCLVQAGGSLRLSCAASGRTSVIYAMGWYRQAPGKERELVASIRRGGSTSYADSVKGRFTISRDNAKNTVYLQMNSLKPEDTAVYYCAADRYTWRKSYDYWGQGTQVTVSS | high polyreactivity
QVQLVESGGCLVQAGGSLRLSCAASGSIFAYYAMGWYRQAPGKERELVAAITSGDSTYYADSVKGRFTISRDNAKNTVYLQMNSLKPEDTAVYYCAADHIWFYFYLYDYWGQGTQVTVSS | low polyreactivity
QVQLVESGGCLVQAGGSLRLSCAASGSIFGANTMGWYRQAPGKESELVAAISSGGNTYYADSVKGRFTISRDNAKNTVYLQMNSLKPEDTAVYYCNAQTRYRYQYGFLGGTGYNYWGQGTQVTVSS | low polyreactivity
QVQLVESGGCLVQAGGSLRLSCAASGSIFRYNIGWYRQAPGKERELVAAISSSGVRTYYADSVKGRFTISRDNAKNTVYLQMNSLKPEDTAVYYCAAASGGRWRVGYWGQGTQVTVSS | high polyreactivity
QVQLVESGGCLVQAGGSLRLSCAASGSIFRYYVMGWYRQAPGKERELVAAISSRGGSTYYADSVKGRFTISRDNAKNTVYLQMNSLKPEDTAVYYCAAYRAYSTAVGMEYWGQGTQVTVSS | high polyreactivity
QVQLVESGGCLVQAGGSLRLSCAASGSIFYNNAMGWYRQAPGKERELVASSTGGGSTYADSVKGRFTISRDNAKNRVYVQMNSLKPEDTAVYYCAVGRYFVRYDYWGQGSQVTVSS | low polyreactivity
QVQLVESGGCLVQAGGSLRLSCAASGSIIGLYPMGWSRQAPGKERELVAAITQSAGSTYYADSVKGRFTISRDNALNTVFLQMNSLKPEDTAVYYCAAVWAYYGYESDYWGQGTQVTVSS | low polyreactivity
QVQLVESGGCLVQAGGSLRLSCAASGSTFDINAMGWYRQAPGKESELVASITFSGGSTYYADSVKGRFTISRDNAKNTVYLQMNSLKPEDTAVYYCAADSSGEYPGGYWGQGTQVTVTS | low polyreactivity

From the nanobody polyreactivity screen of Harvey et al. (2022)
